# Measured values from US20150152192A1 (SAMSUNG ELECTRONICS, published 2015).
# Changes are numbered by the printed parent chain.
# T1: Ang2 with Y460 mutated with alanine, tagged with FLAG (human, UniProt O15123 19-496, limits assumed)
# T1 sequence: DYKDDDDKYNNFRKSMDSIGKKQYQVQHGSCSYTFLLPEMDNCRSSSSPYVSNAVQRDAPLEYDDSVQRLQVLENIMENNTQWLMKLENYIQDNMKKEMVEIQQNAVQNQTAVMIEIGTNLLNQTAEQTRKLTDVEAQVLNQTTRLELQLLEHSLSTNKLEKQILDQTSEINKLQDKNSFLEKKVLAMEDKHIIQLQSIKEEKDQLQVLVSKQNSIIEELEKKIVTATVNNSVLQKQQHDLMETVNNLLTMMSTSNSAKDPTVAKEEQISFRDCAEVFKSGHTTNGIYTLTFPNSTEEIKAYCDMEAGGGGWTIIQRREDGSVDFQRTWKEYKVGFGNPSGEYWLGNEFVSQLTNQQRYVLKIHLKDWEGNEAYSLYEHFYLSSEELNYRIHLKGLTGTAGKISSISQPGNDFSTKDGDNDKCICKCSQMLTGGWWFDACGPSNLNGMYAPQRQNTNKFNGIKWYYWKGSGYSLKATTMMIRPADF
# T2: Ang2 with F469 mutated with alanine, tagged with FLAG (human, UniProt O15123 19-496, limits assumed)
# T2 sequence: T1 sequence with A450Y, F459A
# T3: Ang2 with I434 mutated with alanine, tagged with FLAG (human, UniProt O15123 19-496, limits assumed)
# T3 sequence: T1 sequence with I424A, A450Y
# T4: Ang2 with K468 mutated with alanine, tagged with FLAG (human, UniProt O15123 19-496, limits assumed)
# T4 sequence: T1 sequence with A450Y, K458A
# B1: SAIT-ANG-2-AB-2-E6 (scFv form) (scFv, V domains shown)
# VH: EVQLLESGGGLVQTGGSLRLSCAASGFTFSDYAMSWVRQAPGKGLEWVSAIYPDSGNKYYADSVKGRFTISRDNSKNTLYLQMNSLRAEDTAVYYCARHSSDPKVKSGYYDDGMDVWGQGTLVAVSS
# VL: QSVLTQPPSASGTPGQRVTISCSGSSSNIGNNAVNWYQQLPGTAPKLLIYADSNRPSGVPDRFSGSKSGTSASLAISGLRSEDEADYYCGSWDYSLSGYVFGGGTKLTVLG
# notes: scFv from a phage display library, partly purified from E. coli periplasm on Ni-NTA and detected with anti-HA
# B2: SAIT-ANG-2-AB-7-C9 (scFv form) (scFv, V domains shown)
# VH: EVQLLESGGGLVQPGGSLRLSCAASGFTFSNYAMSWVRQAPGKGLEWVSAISSGGGNIYYADSVKGRFTISRDNSKNTLYLQMNSLRAEDTAVYYCAKSGIQPSPPSMSSAYAMDVWGQGTLVTVSS
# VL: B1 VL with A33D, N35Y, D52N, N54H, S91T
# notes: scFv from a phage display library
# B3: SAIT-ANG-2-AB-4-C11 (scFv form) (scFv, V domains shown)
# VH: EVQLLESGGGLVQPGGSLRLSCAASGFTFSDYAMSWVRQAPGKGLEWVSSIYPDDGNTYYADSVKGRFTISRDNSKNTLYLQMNSLRAEDTAVYYCARHTSHHTSIDGYYYYGMDGWGQGTLVTVSS
# VL: B1 VL with S23T, A33D, N35S, A51S, N54K
# notes: as for B2
# B4: SAIT-ANG-2-AB-8-A5 (scFv form) (scFv, V domains shown)
# VH: EVQLLESGGGLVQPGGSLRLSCAASGFTFSDYYMSWVRQAPGKGLEWVSGIYPSGGSTYYADSVKGRFTISRDNSKNTLYLQMNSLRAEDTAVYYCARDPSTLTYAGFDYWGQGTLVTVSS
# VL: B1 VL with A33Y, N35T, N54H, G90A, S91T
# notes: as for B2
# B5: SAIT-ANG-2-AB-4-F5 (scFv form) (scFv, V domains shown)
# VH: EVQLLESGGGLVQPGGSLRLSCAASGFTFSDYDMSWVRQAPGKGLEWVSSISHGDSNKYYADSVKGRFTISRDNSKNTLYLQMNSLRAEDTAVYYCAKSSGIQESPPTYYYYGMDVWGQGTLVTVSS
# VL: B1 VL with N31S
# notes: as for B2
# B6: SAIT-ANG-2-AB-4-F11 (scFv form) (scFv, V domains shown)
# VH: EVQLLESGGGLVQTGGSLRLSCAASGFTFSDYAMSWVRQAPGKGLEWVSSIYPDDGNTYYADSVKGRFTISRDNSKNTLYLQMNSLRAEDTAVYYCAKHPVRLNLHPMYYYYGMDVWGQGTLVTVSS
# VL: B1 VL with S23T, N35S, A51S, N54Q, G90A, S91T, G98A
# notes: as for B2
# B7: SAIT-ANG-2-AB-3-D3 (scFv form) (scFv, V domains shown)
# VH: EVQLLESGGGLVQPGGSLRLSCAASGFTFSDYDMSWVRQAPGKGLEWVSGISSDDGNTYYADSVKGRFTISRDNSKNTLYLQMNSLRAEDTAVYYCARPTIDKYTLRGYYSYGMDVWGQGTLVTVSS
# VL: B1 VL with S23T, N31S, A33Y, N35S, A51S, S53N, N54K, S91T, Y94D, S97N
# notes: as for B2
# Biological target: T1, Ang2 with Y460 mutated with alanine, …
# Assay: ELISA, scFv coated, 250 ng FLAG-tagged Ang2 mutant, anti-FLAG-HRP
# Protocol: (§1) A 96-well MaxiSorp™ flat-bottom plate (Nunc) was coated with 50 μl of the anti-Ang2 scFv selected above. After that, the plate was washed five times with 0.05% (v/v) Tween-20-containing PBS and then blocked with 1% (v/v) BSA-containing PBS at a room temperature for 2 hours. […] Thereafter, the plate was washed five times with 0.05% Tween-20-containing PBS and then, an HRP-conjugated anti-FLAG antibody (SIGMA) diluted in 1% (v/v) BSA-containing PBS at 1:5,000 ratio (v/v) was added in the amount of 50 μl to each well to react at a room temperature for 1 hour, followed by washing five times with 0.1% (v/v) Tween-20-containing PBS.
# (§2) Finally, 100 μl of TMB substrate (cell signal) was added to each well of the plate to induce color development and then, the reaction was ceased by the addition of 50 μl of 5N H₂SO₄ solution and OD450 values were measured on a plate reader (Molecular Devices).
row,Binder,Relative binding (%) with Mutant Ang2 compared to the binding with native Ang2 [%]
1,B1,40
2,B2,78.1
3,B3,74.3
4,B4,91.6
5,B5,21.8
6,B6,96.1
7,B7,95.1

# Biological target: T2, Ang2 with F469 mutated with alanine, …
# Assay: as above
# Protocol: as §1, §2
row,Binder,Relative binding (%) with Mutant Ang2 compared to the binding with native Ang2 [%]
1,B1,112
2,B2,89.4
3,B3,102
4,B4,102
5,B5,259
6,B6,105
7,B7,96.4

# Biological target: T3, Ang2 with I434 mutated with alanine, …
# Assay: as above
# Protocol: as §1, §2
row,Binder,Relative binding (%) with Mutant Ang2 compared to the binding with native Ang2 [%]
1,B1,5.3
2,B2,8.7
3,B3,7.2
4,B4,4
5,B5,68.6
6,B6,69
7,B7,93.4

# Biological target: T4, Ang2 with K468 mutated with alanine, …
# Assay: as above
# Protocol: as §1, §2
row,Binder,Relative binding (%) with Mutant Ang2 compared to the binding with native Ang2 [%]
1,B1,94
2,B2,97.3
3,B3,94.8
4,B4,101
5,B5,87.4
6,B6,102
7,B7,95.9
